From the nanobody polyreactivity screen of Harvey et al. (2022)

Assay: yeast display, Sf9 membrane polyspecificity reagent, FACS + sequencing; frameworks hold sequencing errors
Method in brief: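 Nanobodies came from a synthetic yeast display library in Saccharomyces cerevisiae BJ5465, induced with galactose for 36–48 hours and stained for 1 hour at 4 °C with 10% biotinylated, detergent-solubilized Sf9 membrane reagent. Cells were enriched on streptavidin microbeads and then FACS-sorted, with low and high (top ~1%) gates set on anti-HA fluorescence for expression and streptavidin fluorescence for reagent binding. Each polyreactivity label reflects the gate a clone came from. Genes were amplified by colony PCR, sequenced by MiSeq 2 × 250 and filtered by CDR length.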

Sequence | polyreactivity (PSR sort gate)
QVHLQESGGGMVQAGGSLRLSCAESGNIFLGDTMGWYRQPPGKEREFVAGIARGGNPYYADSLKGRFTISRNNAKNTVYLQKNSLKPEDTAVHYCAFLRSHASDYIYWGQGTQVTVSS | low polyreactivity
QVHLVDSGGGLVQAGGSLRFSCAASGSIFGWYAMGWYRQAPGTERELVDSIAVTAGSTYYADSVKWRFPISRDKAKNTGYLQLNRLKPEDTALYSCAADDYSADAVQRFYYWGQGSQVTVSS | low polyreactivity
QVHLVDSGGGLVQAGGSLRLSCAASGFIFSKYAMGWYRQAPGKERELVAAISWNGGSTYYADSVKGRFTISRDNAKNTVYLQMNSLKPEDTAVYYCNARGRYRKSERRAFDYWGQGTQVTVSS | high polyreactivity
QVHLVDSGGGLVQAGGSLRLSCAAYGSTFHPYAMGWYRQAPGKERELVADITSSGSTHYADSVKGRFTISRDNAKNTVYLQMNSLKPEDTAVYYCAAGIPWASDSGDPSFEYWGQGTEVTVSS | low polyreactivity
QVHLVDSGGGLVQAGGSLRLSSAASGRIFGHYALGGYRQAPGKPRELVAAIRYSAGRTYYAGSVKGRFTISRDNAKNSVNLQMNSLKPEDTSVYYCAKTCRYLTGGGDYWGQGTQVTVSS | high polyreactivity
QVHLVDSGGGLVQAGGSLSLRCAASRRSFVPYAMGWYSQGPGKEREFLADITWSTCTSTYYADSEKGRFTISRDNAKNTVYLHMNSLKPEDTAVYYCAVDIWWPNWYYIYWGQGTQVTLSS | low polyreactivity
QVHLVDSGGGVVVAGGRLRLSCAASVFTFDRNAMGWYRHARGKERALVAAISSSGGRTYYADSVKGRFTISRDNAKNTFYLQMNSLKPEDTAVYYCNAVPSARTQPYNGWGQGSQVTVSS | high polyreactivity
QVHLVDSRGGLVQAGGSLRLSCAASGRISVFYTMGWYRQEPGKEREMVATITTSGGFTYYADSVKGRFTNSRDNAKNTVYLLMNSLKPEDTAVYYCAAVLGYRFYEYYFWGQGTQVTVSS | low polyreactivity
QVHLVEAGGGLVQAGGSLRYSCAASGYTFKLYAMGWYRQAPGKESELVAAITSGGSTSFADSVKGRFTISRDNAKNTVYLQMNSLKPEDTAVYYCAKRYSSYRAWYRNVGYYYWGLGTQVTVSS | high polyreactivity
QVHLVESAAGLVQAGGSLRLSCAASGSTFIGNAMVWYRQAPGKERELVAAITRSGGTTYYADSVKGRFTISRDNAKNTVYLQMNSLKPEDTAVYYCNKTHFFGYDSWGQGTQVTVSS | low polyreactivity
QVHLVESAAGLVQEGGSLRVSCAASGRIFDIYAMGGYRQSTGKERELVAAITLRGGTTYADSVKGRFTISRDNAKNSVYLQMNSLKPEDTAVYYCARYHWYYRVSKSESWGQGTQVTVSS | high polyreactivity
QVHLVESCGGLVQAGGSLRLSCAASGNTFVYNDMGWYRQAPGKERELVDDIRYSGSTYYADSVKGRFTISRDNAKNTVYLQMNSLKPEDTAVYYCAKAYYVLSWMGYWGQGTQVTVSS | low polyreactivity
QVHLVESGGAFVQAGGSLRLSCAASGRTFGYKAMGWYRQAPVNERELVAAITAGGSTNYADSVKGRFTISRDNAKKTVELQMNRLKPEDTAVYDSAARTYYVPYYYWGQGTQVTVSS | high polyreactivity
QVHLVESGGCLVQAGGSLRLICAASGRIFDGNTMGWYRQEPGKERELVAAISGVGSTDYADSVKGRYTISRDNAKNTVYFQINSLKPEDTAVYYCAATTGPVPLKGDYWGQGTQVTVSS | low polyreactivity
QVHLVESGGCLVQSGGSLRLSCAASGSTFPSYAKGWYRQAPGKERELVAAINSGGGTNYADSVKGRFTISRDNAKNTVYLQMNILKPEDTAVYYCAADVWKLYAYWGQGTQVTVSS | low polyreactivity
QVHLVESGGGIVQAGGSLRLSCAASVRTFQYYAMGWYRKAPGKEREFVAAITRTGARTYYADSVKGRFTISRDNAKNTVYLQMNSLKPEDTAVYYCAKSLTFYSWRDYGYWGQGTQVTVSS | high polyreactivity
QVHLVESGGGIVQARGSLRLSCDASGFIFYDYAMGSYRLAPGKEWELVAAISKRGGSRYYADSVKGRFTISRDNAKNTVYLQMNSLKPEDTAVYYCATEVEPYAYGYWGQGTQVTVSS | high polyreactivity
QVHLVESGGGLDQAGGSLRLSCAASGRIFPLYAMGWYRQAPGKERELVAAISSGGTTYYADSVKGRFTISRDNAKNTVYLQMHSLKPEDTAVYYCARRPAQRWGRFDYWGQGTQVTVSS | low polyreactivity
QVHLVESGGGLIQAGGSLRISSAPSGSTFGTYVMGWSRQAPGKERELVAAISKRGGRTYYADSVKGRFTISRDNAKNTVYVPMTSLKAEDTAVYYCYAVYLYSGSSARYYWGQGTEVTVSS | high polyreactivity
QVHLVESGGGLLQAGGSLRLSCAASGFTFFVNAMGWYRQAPGKERELVAAISIRSGGRTYYADSVKGRFTISRENAKNTVYLQMNSLKPEDTAVYYCAAESSRPEHTFHYYRFLFDYWGQGTQVTVSS | low polyreactivity
QVHLVESGGGLVHAGGSLRLSSAASGFIFRYYAMGWYRQAPGKERELVAAITSLGGRTYYADSVNGRFTISRDYAKNTVYLQMNSLKPEDTAVFYCAKSTRGTYDMGFWGQVTQVTVSS | high polyreactivity
QVHLVESGGGLVKAGGSLRISCAASGRTSVLYAMGWYRQAPGKDREFVAAITWNSGSTYYADSVKGRFTISRDNAKHTVYLQMNCLKPEDTAVYYCAADVYYEYDYWGQGTQVTVSS | low polyreactivity

Sequence | polyreactivity (PSR sort gate)
QVHLVESGGGLVQAAGILRLSSAASGFTFVPYAMGWYRQAPGKERELVAAISWRRGSTYYADSVKGRFTISRDNAKITVYLQMNSLKPEDSGVYYGDDQYFSRSGYWGQGTQVTVSS | high polyreactivity
QVHLVESGGGLVQAGCCLRLRCAASGRTYDAYAKAWYRQAPGKERELVAAISSGDITNYADSVKGRFTISRDHAKNTVYLQMNSLKPEDTAVYYCAAKPRLRFFLWHEYSSRYDYWGQGTQVTVSS | high polyreactivity
QVHLVESGGGLVQAGCSLRLSCAASGYIFVRNAMGWYRQAPGKERELVAAISGSGGSTYYADSVKGRFTISRDNAKNTVYLQMNSLKPEDTAVYYCASDPYHWRWGWRHDYWGQGTQVTVSS | low polyreactivity
QVHLVESGGGLVQAGGILRLSCAASGRTFLWYAMGWSRQAPGKERELVAAISKRGGSTYYADSVKGRFTISRDKAKNTVYLQMNSLKPVDTAVYYCAAEKRYSSYDYWGQGTQVSVSS | high polyreactivity
QVHLVESGGGLVQAGGILRLSCAASGRTFPGYAMGWYRQAPGKERELVAAITYTGGDTHYADSVKGRFTISRDNAKNTVYLQMNSLKPEDTAVYYCAAVYYRGIQSYDYWGQGTQVTVSS | low polyreactivity
QVHLVESGGGLVQAGGILRLSCSAYGSIFDVNAKGWYRQSPGKERELVAAISDSGGSTYYADSVKGRFTISRDNAKNTVYLQMNSLKPEDTSVYYCNADWYWYNYYDFDYWGQGTQVTVSS | low polyreactivity
QVHLVESGGGLVQAGGRLLLSCAASGLILRTYGMGWYRQAPRKERELVAVISSGGSTYYADSVNGRFTISRDNAKNTVYLQMNSLKPEDTAVYYCAVRSSWYEGDYWGQGTQVTVSS | low polyreactivity
QVHLVESGGGLVQAGGSHRLSCAASGSTLRWNAMGWYRQAPGKERELVAAITYSGGSTYYADSVKGRFTISRDNAKNTVYFQMNSLKPEDTAVYYCAADSYRYRPGYGPVLYDYWGQGTQVTVSS | high polyreactivity
QVHLVESGGGLVQAGGSIRLSCAASGGTFSRNAMGWYRQAPGKERELVAAINSSGVSTSYADSVKGRFTISRDNAKNNVYLQMNSLKPEDTAVYYCAAETSSAEVDYWGQGTQVTVSS | low polyreactivity
QVHLVESGGGLVQAGGSLGISCAASGRILYGYAMGWNRQAPGKERELVAAITATYYADSVKGRFTISRDNAKNSVYLQMNSLNPEDTGVFYCNAYLCPIQPLSPPDPTFEGGYWGQGTQVTVSS | low polyreactivity
QVHLVESGGGLVQAGGSLGLSCAASGFTFANNAMGWYRQAPGKERELVAAISSSGGSTYYADSVKVRFTISRDNAKKTVYLQMNSLKPEDTAVYYCAARRRGSYYGYGYWGQGTQVTVSS | high polyreactivity
QVHLVESGGGLVQAGGSLRISCAASGRIFVGYVMGWYRQAPGKERELVAAITWRGGSTYADSVKGRFTISRDNAKNTVYLQMNSLIPEDTAVYYCAAKVSRTYPRIPYYYWGQGTQVTVSS | high polyreactivity
QVHLVESGGGLVQAGGSLRISFAASGRTFPYYDMGWYRQAPGKERELVAAINSGGRTNYADSVKGRFTISRDNAKNTVYLQLNSLKPEDTAVYYCTKRGHPSRLGYYYWGLGTQVTVSS | low polyreactivity
QVHLVESGGGLVQAGGSLRLICAASGSIFRWNAMGWYRQAPGKEREFVATISSGRNTKYADSVKGRFTISRDNAKNTVYLQMTSLKPQDTAVNDCAAAVKRALDYWGQGTQVTVSS | high polyreactivity
QVHLVESGGGLVQAGGSLRLICAASGYTFAFYAMGCYRQAPGKERELVAAISAGGGRTYYADSVKGRFTISRDNANNTVYLQMNSLKPEDTAVYYCATDLIQGAAPFRYDYWGQGTQVTVSS | low polyreactivity
QVHLVESGGGLVQAGGSLRLILAASGYIFSSNAMGWYRQAPGKEREFVADISSTGGSTYYADSVKGRFTISRDNAKNTVYCQMNILKPEDTGVYYCAAYIRRYFHYDYWGQGTQVTGSS | high polyreactivity
QVHLVESGGGLVQAGGSLRLRCAASGSNLESYAMGWYRQAPGKEMELVADITYDGGITYYADSVKGRFTISRDNAKNTVYLQMNSLKPEDTAVYYCATEYRYWQSDYSTYFPYDYWGQGTQVTVSS | low polyreactivity
QVHLVESGGGLVQAGGSLRLSCAASGFIFSGYALGWKRQAPGKERELVAAITSSGDGTYYADSVKGRFTISRDNAKNTVYLQMNSLTPEDTAVYYCNAGRARYFWRTDRFDYWGQGTQVTVSS | high polyreactivity
QVHLVESGGGLVQAGGSLRLSCAASGFIFTDYAMGWYRQAPGKERELVAAISSGGRTYYADSVKGRFTISRDNAKNTVYLQMNSLKPEDTAVYYCARGGRAEGWGQGTQVTVSS | high polyreactivity
QVHLVESGGGLVQAGGSLRLSCAASGFIFYLYAMGWYRQAPGKERELVASITSSGRTNYADSVKGRFTISRDNAKNTVYLQMNSLKPEDTAVYYCNKRYSKGDEYYYWGQGTQVTVSS | high polyreactivity
QVHLVESGGGLVQAGGSLRLSCAASGFLFRTYAMGWYRPGPGKERELVDAISNDANTKYADSVKGRFTISRDNAKNTVYLQMNSLKPEDTAVYYGAAKAIYRGRYLKIVKVGYWGQGTQVTVSS | high polyreactivity
